In the DeepSol protein solubility set:

Test: soluble on expression in E. coli; label from the status in PepcDB or PDB records

Sequence	soluble on expression in E. coli
MSVLQRIVSRRTQLSESGRQIGDWVLANAAQAAAMTSQDLAAWANVSQSSIVKFTQRLGFKGYSEFKLALTEELGRKQVMVNQPLHSNILADDPVAVIAQKLVQTKTEAMFHTTNALRLDEFSEAISWIQQAVRVQIIGIGGSALVAKDLAFKLLKLGITALTEQDSHVQIATARTLHSQDVLIAISFSGEKREILIAAEAAKQQGAKVIALTTPNKNRLREIADLALDTIADETQHRSSAIASRTAQNVLTDLIFLTLTQQRETSARQLIDDISSDIRQMR	not soluble
MAEQYSEINTDTLERVTEIFKALGDYNRIRIMELLSVSEASVGHISHQLNLSQSNVSHQLKLLKSVHLVKAKRQGQSMIYSLDDIHVATMLKQAIHHANHPKESGL	soluble
MSHYGGNPRGNSSHQFGRKDFQQSDSKHIPKITGQPLPNEVQIPFDNMIYETRNPPKFEKQAKFISEYCINYDRKLQLGRMRAKKFHDKLPPNNLSLDLGKGFETFDPKEGDEKIIMLLEWINQMAPEGGRLKKVIHEADVVCWRGLITKICSTIYNKEEGWRIDAIKRKGVIFLCEEKTEQAKNRDLNQTDLDKRMSYWGHKFEQYVTLDDDAEQPDTSSPVTTKEEYAVVFRNDLQTDQRLNPEKRSIGIFYSGEVDCLDRHGNMLELKTQKGELGHGFYKYSKSFKWWLQSSLVNVDHIIVGLRTQEGHVKSLTSLRTREIPQRASWNFRAGFEFLSTIFTYILNCLEKDGDACVIEYRSEMGIHKGIQMRRVPVDEFDFVPNEFLEKFC	not soluble
SSPATPVPPDSILESPFEEMALVRGGWLWRQSSILRRWKRNWFALWLDGTLGYYHDETAQDEEDRVVIHFNVRDIKVGQECQDVQPPEGRSRDGLLTVNLREGSRLHLCAETRDDAIAWKTALMEANSTPAPAGATVPPRSRRVCPKVRCTTLSWNPCKVERRIWVRVYSPYQDYYEVVPPNAHEATYVRSYYGPPYAGPGVTHVIVREDPCYSSGAPLAMGMLAGAATGAALGSLMWSPCWF	not soluble
MYSERPPLDPHPLSPYMAWTGYRNRDAILDVLKGVFPRDKSDVLEFAAGSGMHAHYFAQHFAHLTFHPSDSDEDLLPHIEERTRQSGLSNVARPRRLDLTQPETWPAGEKFHAIYCINVCQVAPVSIVGGIMACSSRILADGGFLFIYGPFLDYGRFASDFDEEFDRLLRSTGEEGWSLKDIAELDRAAGRHGMRLDDEIDMPSNDFALIYRRA	not soluble
MAHHHHHHMPRRFVAEYVTKHLCGVRVLESFAETSTATGVIGTHNGSFHCDEAMACGLLRCSQNFGQSNILRSRDPNALERCNIVVDVGSVYDEATLRFDHHQPSFHDTMKTPKAAYQTRLSSAGLVYKHFGREIIQGYVESALASPYRVKLLDATKWGTDKKKLSEQELDILFDIVYKNFVEHIDGIDNGVNAYGPAETEGEEGAVPVSSSSPSCVKKYNVSTTLSARIGNLMPWWNEEGNGKVENENAAFLQAMELATSEFFDSVHYHVFAWMPARGIVRAAFLEAMNVHPSGRIVVFKDCFCPWKEHLLELEEEHGKVGHVLYVLFADKKGWRVQAVPKEASGFENRKSLPWRGLRDEELSQASGIEGGIFVHVSGFIGGNKTYEGALQMAVKALTVVN	not soluble
MATSKLQAIWNHPAGPKTIHFWAPTFKWGISIANIADFAKPPEKLSYPQQIAVTCTGVIWSRYSMVINPKNWNLFSVNVAMAGTGIYQLARKIKHDYATEAEPAVASE	soluble
MRGSHHHHHHGSEYPERPVNMVVPFAAGGPTDNVARSLAESMRPTLGETVVVENKGGAGGTIGTTQVARAQPDGYSILLMHAGFSTAPSLYKNPGYEPYTSFEPIGLVVDVPMTIIARGDFPPNNIKELAEYVKKNADKISLANAGIGAASHLCGTMLVEALGVNLLTIPYKGTAPAMNDLLGKQVDLMCDQTTNTTQQITSGKVKAYAVTSLKRVPTLPDLPTMDESGYKGFEVGIWHGMWAPKGTPKPVVDKLVKSLQAGLADPKFQERMKQLGAEVLTNEANPEALQAKVKQQVPQWAELFKKAGVEKQ	soluble
MSKSIYEQYLQAKADNPGKYARDLATLMGISEAELTHSRVSHDAKRLKGDARALLAALEAVGEVKAITRNTYAVHEQMGRYENQHLNGHAGLILNPRNLDLRLFLNQWASAFTLTEETRHGVRHSIQFFDHQGDALHKVYVTEQTDMPAWEALLAQFITTENPELQLEPLSAPEVTEPTATDEAVDAEWRAMTDVHQFFQLLKRNNLTRQQAFRAVGNDLAYQVDNSSLTQLLNIAQQEQNEIMIFVGNRGCVQIFTGMIEKVTPHQDWINVFNQRFTLHLIETTIAESWITRKPTKDGFVTSLELFAADGTQIAQLYGQRTEGQPEQTQWRDQIARLNNKDIAA	soluble
VTDLAGTTRLLRAQGVTAPAGFRAAGVAAGIKASGALDLALVFNEGPDYAAAGVFTRNQVKAAPVLWTQQVLTTGRLRAVILNSGGANACTGPAGFADTHATAEAVAAALSDWGTETGAIEVAVCSTGLIGDRLPMDKLLAGVAHVVHEMHGGLVGGDEAAHAIMTTDNVPKQVALHHHDNWTVGGMAKGAGMLAPSLA	soluble
MCSDVVAGDLNDLRIAALNLGKMSELYTNGAFVLGIAQGADTETYGRPHEWWSYVEQQLATALRFTYDRLNDGQEALLAAIDAYAYVDGDNAKGLTDVGKEYKEYISNPNNVGDEKYYDPPPLHTMVDAPDLGDKPEGWEEKYDG	not soluble
MGSDKIHHHHHHMLFDTSPKDNRKDFFDREKEIEKLKGLRAPITLVLGLRRTGKSSIIKIGINELNLPYIYLDLRKFEERNYISYKDFLLELQKEINKLVKRLPSLLKALKNIQGIVIMGNEIKFNWNRKDRLSFANLLESFEQASKDNVIIVLDEAQELVKLRGVNLLPALAYAYDNLKRIKFIMSGSEMGLLYDYLRVEDPESPLFGRAFSTVELKPFSREEAIEFLRRGFQEADIDFKDYEVVYEKIGGIPGWLTYFGFIYLDNKNLDFAINQTLEYAKKLILKEFENFLHGREIARKRYLNIMRTLSKCGKWSDVKRALELEEGIEISDSEIYNYLTQLTKHSWIIKEGEKYCPSEPLISLAFS	not soluble
MLSEETIRVIKSTVPLLKEHGTEITARMYELLFSKYPKTKELFAGASEEQPKKLANAIIAYATYIDRLEELDNAISTIARSHVRRNVKPEHYPLVKECLLQAIEEVLNPGEEVLKAWEEAYDFLAKTLITLEKKLYSQP	soluble
MDHLKHLQQLQNIERIVLSGIVLANHKIEEVHSVLEPSDFYYPPNGLFFEIALKLHEEDCPIDENFIRQKMPKDKQIKEEDLVAIFAASPIDNIEAYVEEIKNASIKRKLFGLANTIREQALESAQKSSDILGAVEREVYALLNGSTIEGFRNIKEVLESAMDLITENQRKGSLEVTGIPTGFVQLDNYTSGFNKGSLVIIGARPSMGKTSLMMNMVLSALNDDRGVAVFSLEMSAEQLALRALSDLTSINMHDLESGRLDDDQWENLAKCFDHLSQKKLFFYDKSYVRIEQIRLQLRKLKSQHKELGIAFIDYLQLMSGSKATKERHEQIAEISRELKTLARELEIPIIALVQLNRSLENRDDKRPILSDIKDSGGIEQDADIVLFLYRGYIYQMRAEDNKIDKLKKEGKIEEAQELYLKVNEERRIHKQNGSIEEAEIIVAKNRNGATGTVYTRFNAPFTRYEDMPIDSHLEEGQETKVDYDIVTT	not soluble
MTATSSPTTRFTDRVVLITGGGSGLGRATAVRLAAEGAKLSLVDVSSEGLEASKAAVLETAPDAEVLTTVADVSDEAQVEAYVTATTERFGRIDGFFNNAGIEGKQNPTESFTAAEFDKVVSINLRGVFLGLEKVLKIMREQGSGMVVNTASVGGIRGIGNQSGYAAAKHGVVGLTRNSAVEYGRYGIRINAIAPGAIWTPMVENSMKQLDPENPRKAAEEFIQVNPSKRYGEAPEIAAVVAFLLSDDASYVNATVVPIDGGQSAAY	soluble
MGSDKIHHHHHHMAAWRTVVIATSCHLRVRDRQLVIESREGERTQLPLADIGVVIVENPQVTLSAALLSALAQEGTALMSCDSSHLPDGVFAPFGTHSRHTRAARVQAVWSEPFKKRCWQKIVRAKVSSQAEVLRRVGAEDAARRLENLVGKVTSGDTTGVEAQAAQVYWRSLFVNFKRWDGGLDARNGGLNYGYAVLRGALGRAIAGAGLIPAFGLHHAGELNSFNLADDLIEPFRPFVDLLVWGLFLERTGDDPLTREERMRIAQILGESCIMTERYETLLSATQIIARSLVSAGEQKESRRLILPWMGEDDVQGEVYEADGDV	not soluble
MTVLIAGAGIAGLSLGLTLHQIGVPFRIYEATAVLRPMGVGINLQPNAVRELLDLGLEAELDRIGVRTRQLGFYSKLGKTIWEEPRGIWAGYAWPQYSVHRGALQMMLYEALIARAGADCVVTGARAAGFETGPESATLILSDGRRVEGRLLIAADGIHSALRAQMYPNEGEPIWNGRVLWRATTRAPAYFGGGAMAMIGHDDLRLVSYPISEPDGDGMVEMNWIAEKRFPLDAAWKKEDWNRAADIGDFLPDFADWRFDWIDVPALIQGAEVVYEYPMVDRDPLPRWTGGSVTLMGDAAHPTYPVGSNGASQAILDARIIGARLLEHGITPRALAAYEAEVRPVTTAVGQANRAGGGPDGVLQRVEDLCGGDFDDIDTVIPHAELAAHAARYKSIAGFSIEELNARPRTIAEGARIPALEHHHHHH	not soluble
IIGGNEVTPHSRPYMVLLSLDRKTICAGALIAKDWVLTAAHCNLNKRSQVILGAHSITREEPTKQIMLVKKEFPYPCYDPATREGDLKLLQLTEKAKINKYVTILHLPKKGDDVKPGTMCQVAGWGRTHNSASWSDTLREVNITIIDRKVCNDRNHYNFNPVIGMNMVCAGSLRGGRDSCNGDSGSPLLCEGVFRGVTSFGLENKCGDPRGPGVYILLSKKHLNWIIMTIKGAV	soluble
NIVLTQSPASLAVSLGQRATISCRANESVYSYGDSFMHWYQQKPGQPPKLLIYLASNLASGVPARFSGSGSRTDFTLTIDPVETDDAATYYCQQNNEDPWTFGGGTKLEIKRGDAAPTVSIFPPSSEQLTSGGASVVCFLNNFYPKDANVAWKIDGSERQNGVLNSWTDQDSKDSTYSMSSTLTLTKDEYERHNSYTCEATHKTSTSPIVKSFNR	soluble
MRSELCCCRAVKRAAPEESIEEDDSYEDSDLEEGGSSYDEGTVDSESSAEDQEDKDVPVSEKKKRKLPSDVTEGKTVFIRNLSFDSEEEALGEVLQQFGDLKYVRVVLHPDTEHSKGCAFAQFMTQEAAQKCLAAASLEAEGGGLKLDGRQLKVDLAVTRDEAAKLQTKKVKKPTGTRNLYLAREGLIRAGTKAAEGVSAADMAKRERFELLKHQELKNQNIFVSQTRLCLHNLPKAVDDKQLRKLLLEATRGEKGVRIKECRVMRDLKGVHGKMKGQSLGYAFAEFQKHEHALRALRHFNNNPEIFGSQKRPIVEFSLEDRRKLKVKELRIQRSLQKMESKPVTSKPQKEQKEVGKDKQQKAVQSATQDQSKAPGEQKGKAGSTSWTGFQTKAEVEQVELPDGKKRRKVLALPSHRGPKIRLRDKGKVKSLPSRKPKPQMGQRKQKKQQLASSVQAPKRKAKENKAEARFNQLVEQYKQKLLGPSKGAPLMKRSKWFDS	soluble
MGHHHHHHSHMPATLLRAVARSHHILSKAHQCRRIGHLMLKPLKEFENTTCSTLTIRQSLDLFLPDKTASGLNKSQILEMNQKKSDTSMLSPLNAARCQDEKAHLPTMKSFGTHRRVTHKPNLLGSKWFIKILKRHFSSVSTETFVPKQDFPQVKRPLKASRTRQPSRTNLPVLSVNEDLMHCTAFATADEYHLGNLSQDLASHGYVEVTSLPRGTSS	not soluble
